Publication PMC7437983 (Traffic (Copenhagen, Denmark), 2020)

Target: Nup358-min-GST, human Nup358 residues 2148-2240 (human, UniProt P49792 2148-2240)
Experiment: pull-down

Nup358-min-GST, human Nup358 residues 2148-2240, sequence (P49792 2148-2240): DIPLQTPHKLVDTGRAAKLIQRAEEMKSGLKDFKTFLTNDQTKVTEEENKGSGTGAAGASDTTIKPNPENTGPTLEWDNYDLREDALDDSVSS

- binding result: binds
B1: human Bicaudal D2 C-terminal cargo-binding domain, wild type (domain or fragment, UniProt Q8TD16 715-804, looked up)
chain: YENEKAMVTETMMKLRNELKALKEDAATFSSLRAMFATRCDEYITQLDEMQRQLAAAEDEKKTLNSLLRMAIQQKLALTQRLELLELDHE
